Results published in patent USRE49495E1, “Binding polypeptides having a mutated scaffold” (Affibody AB, priority 2013, dated 2023).
One block for each molecule: values may come before it.

Assays:
[1] = Circular dichroism, variable temperature measurement (Tm) and spectra before and after heating; assay type: physicochemical; conditions: His6-tagged, 0.5 mg/ml in PBS, CD at 221 nm, 20 to 90° C.
Protocol: Circular dichroism (CD) analysis was carried out to determine the melting temperatures (Tm) and assess potential changes in the secondary structure of the inventive polypeptides as a result of the amino acid substitutions.
Purified His6-tagged Z variants were diluted to 0.5 mg/ml in PBS. For each diluted Z variant, a CD spectrum at 250-195 nm was recorded at 20° C. A variable temperature measurement (VTM) was performed to determine the Tm. In the VTM, the absorbance was measured at 221 nm while the temperature was raised from 20 to 90° C., with a temperature slope of 5° C./min. After the VTM, a second CD spectrum at 250-195 nm was recorded at 20° C. The CD measurements were performed on a Jasco J-810 spectropolarimeter (Jasco Scandinavia AB) using a cell with an optical path-length of 1 mm.

human FcRn = target: T1, human FcRn (Homo sapiens, UniProt P55899); assay: Biacore 2000 comparative kinetic analysis, FcRn; assay type: binding; conditions: for KDInv/KDOrig: original set to 1.0
T1 construct: purchased Biorbyt orb 84388
Protocol: Comparative kinetic constants (kon and koff) and affinities (KD) were determined using a Biacore 2000 instrument. The target proteins human HER2-Fc (R&D Systems, cat. no. 1129-ER-050), human PDGF-Rβ (R&D Systems, cat. no. 385-PR-100/CF), human FcRn (Biorbyt, cat. no. orb 84388) and human CAIX (R&D Systems, cat. no. 2188-CA), respectively, were immobilized on the carboxylated dextran layer surface of CM5 chips (GE Healthcare). The immobilization was performed using amine coupling chemistry according to the manufacturer's protocol and using HBS-EP as running buffer. One flow cell surface on the chip was activated and deactivated for use as blank during analyte injections.
HBS-EP (HER2, PDGF-Rβ, CAIX) or a pH 6.0 Na2HPO4/citric acid buffer (126 mM Na2HPO4, 37 mM citric acid) (FcRn) was used as running buffer and the flow rate was 30 μl/min in the binding experiments performed at 25° C. as further described below.
Regeneration by three pulses of HBS-EP followed by 10 min equilibration in running buffer was applied after each analyte injection.
Kinetic constants were calculated from the sensorgrams using the Langmuir 1:1 model (HER2, FcRn, CAIX) or the 1:1 binding with mass transfer model (PDGF-Rβ) of the BiaEvaluation software 4.1 (GE Healthcare). Curves of the blank surface were subtracted from the curves of the ligand surfaces and the data from the buffer cycles were subtracted from the data of the test-sample cycles to correct for any drift in signal.

[2] = target: T2, human HER2-Fc (R&D Systems, cat. no. 1129-ER-050) (human, UniProt P04626 23-652); assay: SPR Biacore 2000, HER2-Fc on CM5 chip, 1:1 Langmuir; sample (0) before stability test; reference Z02891 (0)
T2 construct: Bought; also called human epidermal growth factor receptor 2; not shown: Fc part of the bought fusion protein

[3] = target: T2, human HER2-Fc (R&D Systems, cat. no. …); assay: SPR Biacore 2000, HER2-Fc on CM5 chip, 1:1 Langmuir; sample (2w) after 2 weeks at 37 C
[4] = target: T2, human HER2-Fc (R&D Systems, cat. no. …); assay: SPR Biacore 2000, HER2-Fc on CM5 chip, 1:1 Langmuir; sample (2w) after 2 weeks at 37 C; reference Z02891 (2w)
[5] = target: T2, human HER2-Fc (R&D Systems, cat. no. …); assay: SPR Biacore 2000, HER2-Fc on CM5 chip, 1:1 Langmuir; sample (0) before stability test
[6] = target: T2, human HER2-Fc (R&D Systems, cat. no. …); assay: SPR Biacore 2000, HER2-Fc on CM5 chip, 1:1 Langmuir; KD after 2 weeks at 37 C against KD before
[7] = Accelerated stability study of C5 binding polypeptides, 2 weeks at 37° C., SDS-PAGE and Reversed Phase HPLC (RPC); assay type: physicochemical
[8] = Three month stability test at 37° C., RPC main peak
[9] = target: human FcRn (Biorbyt, cat. no. orb 84388) (human) (UniProt P55899); assay: SPR Biacore 2000, FcRn on CM5 chip, pH 6.0, 1:1 Langmuir; sample (2w) after 2 weeks at 37 C
[10] = target: human FcRn (Biorbyt, cat. no. orb 84388) (human) (UniProt P55899); assay: SPR Biacore 2000, FcRn on CM5 chip, pH 6.0, 1:1 Langmuir; sample (0) before stability test
[11] = target: human FcRn (Biorbyt, cat. no. orb 84388) (human) (UniProt P55899); assay: SPR Biacore 2000, FcRn on CM5 chip, pH 6.0, 1:1 Langmuir; KD after 2 weeks at 37 C against KD before
[12] = target: human FcRn (Biorbyt, cat. no. orb 84388) (human) (UniProt P55899); assay: SPR Biacore 2000, FcRn on CM5 chip, pH 6.0, 1:1 Langmuir; sample (2w) after 2 weeks at 37 C; reference Z10103 (2w)
[13] = target: human FcRn (Biorbyt, cat. no. orb 84388) (human) (UniProt P55899); assay: SPR Biacore 2000, FcRn on CM5 chip, pH 6.0, 1:1 Langmuir; sample (0) before stability test; reference Z10103 (0)
[14] = (0) prior to stability test, pH 6.0
[15] = (2w) after 2 weeks at 37° C., pH 6.0

Molecule: Z17348: inventive FcRn binding Z variant; D36R, D37Q, S39E, N52S, D53E (AEAKYAKEQDAAAHEIRWLPNLTFDQRVAFIHKLARQPEQSSELLSEAKKLSESQAPK; Engineered FcRn binding Z variant)
Tm (° C.) [1]: 44 °C
KDInv/KDOrig (human FcRn; (0) prior to stability test): 1.93
ka (human FcRn; [14]): 1.82e+06 M/s
kd (human FcRn; [14]): 0.01 s⁻¹
Kd (human FcRn; (0) prior to stability test, pH 6.0, comparative, not absolute): 5.5 nM
KDInv/KDOrig (human FcRn; (2w) after 2 weeks at 37° C.): 3.46
ka (human FcRn; [15]): 1.28e+06 M/s
kd (human FcRn; [15]): 0.00809 s⁻¹
Kd (human FcRn; (2w) after 2 weeks at 37° C., pH 6.0, comparative, not absolute): 6.3 nM
KD(2w)/KD(0) (human FcRn; KD after stability test relative to KD before): 1.14
effect of scaffold substitutions on the affinity (human FcRn; compared with original Z variant): more negative effect on the affinity
Kd (human FcRn; range of magnitude): ~1 nM

B2: PSI0383: C5 binding polypeptide fused to albumin binding domain; ND to SE in positions 52-53 (protein)
chain: AEAKYAKEVLEAWDEIDRLPNLTIEQWLAFINKLDRQPEQSSELLSEAKKLSESQAPKVEGSLAEAKEAANAELDSYGVSDFYKRLIDKAKTVEGVEALKDAILAALP
modifications: Engineered C5 binding Z variant
Main peak (% of total protein) ([7]; RPC, after 2 weeks at 37° C., 25 mM NaP/125 mM NaCl pH 7.0): 91%
2 weeks, 37° C. Main peak (% of total protein) ([7]; RPC, data from Example 2 repeated in Table 8): 91%
stability when compared with PSI0242 ([7]; conclusion from Table 1, 2 weeks at 37° C.): increased stability
stability after 3 months at 37° C. compared with PSI0242 after 2 weeks [8]: higher proportion of protein in the original form
3 months, 37° C. Main peak (% of total protein) ([8]; RPC): 59%

Other lines, results leading:

KDInv/KDOrig [2]: 33 ratio
Kd [3]: 2.3 nM
koff [3]: 0.0015 s⁻¹
kon [3]: 649000 M⁻¹ s⁻¹
KDInv/KDOrig [4]: 37 ratio
Kd [5]: 1.8 nM
koff [5]: 0.00157 s⁻¹
kon [5]: 894000 M⁻¹ s⁻¹
KD(2w)/KD(0) [6]: 1.31 ratio
B1: Z17342 (designed binder)
chain: MGSSHHHHHHLQAEAKYAKEMRNAYWEIALLPNLTNQQKRAFIRKLYRQPEQSSELLSEAKKLSESQAPK

Kd [9]: 6.3 nM
koff [9]: 0.00809 s⁻¹
kon [9]: 1.28e+06 M⁻¹ s⁻¹
Kd [10]: 5.5 nM
koff [10]: 0.01 s⁻¹
kon [10]: 1.82e+06 M⁻¹ s⁻¹
KD(2w)/KD(0) [11]: 1.14
KDInv/KDOrig [12]: 3.46
KDInv/KDOrig [13]: 1.93
B3: Z17348 (designed binder)
chain: MGSSHHHHHHLQAEAKYAKEQDAAAHEIRWLPNLTFDQRVAFIHKLARQPEQSSELLSEAKKLSESQAPK
